The values below come from article PMC9292375, “Structural basis of an epitope tagging system derived from Haloarcula marismortui bacteriorhodopsin I D94N and its monoclonal antibody GD‐26” (The Febs Journal, 2021).

Assay in all cases: ITC; synthetic peptide in the syringe titrated into GD-26 Fab or GD-26 IgG (10 μM) in the cell; 25 °C; 50 mM Tris, 150 mM NaCl, pH 7.5; one-set-of-sites model
What all share (details): both partners purified

The target in experiment [1] is T1, TD peptide (GTGATPADD), peptide V from the C terminus of HmBRI D94N (Haloarcula marismortui HmBRI C terminus …).
T1 construct: nine residues at the C terminus of Haloarcula marismortui bacteriorhodopsin I (HmBRI); residue numbers 1-9 count on: the TD peptide; also called TD tag; wild-type TD peptide; source: synthetic peptide
T1 chain: GTGATPADD

The target in experiment [2] is T2, TD peptide N4 (Gly1 to Ala4 deleted) (Haloarcula marismortui (strain ATCC …)).
T2 construct: TD peptide residues 5-9 (Gly1, Thr2, Gly3 and Ala4 deleted); numbers count on: the TD peptide; source: synthetic peptide
T2 chain: TPADD

The target of a further experiment is T3, TD peptide A7E (A7E (stands in the printed letters)).
T3 construct: TD peptide (C terminus of HmBRI) with A7E; numbers count on: the TD peptide; source: synthetic peptide
T3 chain: GTGATPEDD

A further experiment has as its target T4, TD peptide A7Q (A7Q (stands in the printed letters)).
T4 construct: TD peptide (C terminus of HmBRI) with A7Q; numbers count on: the TD peptide; source: synthetic peptide
T4 chain: GTGATPQDD

For a further experiment, the target named is T5, TD peptide A7T (A7T (stands in the printed letters)).
T5 construct: TD peptide (C terminus of HmBRI) with A7T; numbers count on: the TD peptide; source: synthetic peptide
T5 chain: GTGATPTDD

A further experiment concerns the target T6, TD peptide A7P (A7P (stands in the printed letters)).
T6 construct: TD peptide (C terminus of HmBRI) with A7P; numbers count on: the TD peptide; source: synthetic peptide
T6 chain: GTGATPPDD

In experiment [3] the target is T7, TD peptide N2 (Gly1 and Thr2 deleted) (Haloarcula marismortui (strain ATCC …)).
T7 construct: TD peptide residues 3-9 (Gly1 and Thr2 deleted); numbers count on: the TD peptide; source: synthetic peptide
T7 chain: GATPADD

Several values for one entry are separate records, joined by “and”; a condition that tells them apart may be missing. Identical values can stand only once.

B1: GD-26 Fab (antigen-binding fragment of monoclonal antibody GD-26) (Fab, V domains shown)
VH: QVQLRQSGPELVKPGASVKMSCRASGYTFTNYNIHWVRQRPGQGLEWIGWIYPVDGTTKYNEKFKDKTTLTSDKSSSTAYMSLSGLTSEDSAIYFCARGLDNWGQGTSVTVSS
VL: DVVLTQTPLSLSVTIGQPASISCRSSQRLLYSNGKTYLNWFQQRPGQAPKYLMFQVSKLGPGIPARFSGSGSETDFTLKISRVEAEDLGVYYCFQGTFFPHTFGGGTKLEMK
notes: Fab heavy chain of GD-26; whole chain in PDB 7DOH; light chain of GD-26; the Fab was secreted; source: Expi293F, transient co-transfection, secreted; purified (HisTrap Excel, Superdex 200 gel filtration)
Take B1: the dissociation constant (Kd) is 0.0198 µM and 0.0194 µM in experiment [1]; 0.0464 µM in the experiment with TD peptide A7E; 0.0593 µM with TD peptide A7Q; 0.449 µM with TD peptide A7T; 1.04 µM in the experiment with TD peptide A7P; 0.548 µM in experiment [3]. Besides, in experiment [1], the dH is -56.1 kJ/mol. Also, the “stoichiometry N” value in experiment [1] is 0.93 sites. The binding result in experiment [2] is given as “no binding”.

As usually defined, the Kd is a measure of binding affinity in units of concentration. A lower Kd goes with higher affinity. As a reminder, the stoichiometry N is the number of molecules, sites or subunits per partner or assembly.
